Assay results published in patent publication US20110223107A1 (ALETHIA BIOTHERAPEUTICS, published 2011).
Positions count from the first letter of the chain named. “And” between values parts separate entries of the source, which are not always exact repeats. Identical values can stand only once. Like-named read-outs stand apart in the source and are kept apart here.

B1: Fab of well C2 (Omniclonal AL0003Z1 plate) (Fab, V domains shown)
VH: DVQLQESGPDLVKPSQSLSLTCTVTGFSITSGYGWHWIRQFPGNKLEWMGYISFNGDSNYNPSLKSRISITRDTSKNQFFLQLNSVTSEDTATYYCASSYDGLFAYWGQGPLVTVSA
VL: DIQMTQSPSSMYASLGERVTLTCKASQDIHNYLNWFQQKPGKSPKTLIHRANRLVAGVPSRFSGSGSGQDYSLTISSLEYEDLGIYYCLQYDAFPLTFGAGTKLELK
B2: 3C4 mouse anti-KAAG1 Fab (Fab, V domains shown)
VH: B1 VH with D1E, S53N, F54Y, N55D, D57H, S58N, N59D, R72Q, S88T, P111T
VL: DIVMSQSPSSMYASLGERVTITCKASQDIHNFLNWFQQKPGKSPKTLIFRANRLVDGVPSRFSGSGSGQDYSLTISSLEFEDLGIYSCLQYDEIPLTFGAGTKLELR
notes: Recombinant mouse Fab prepared from E. coli; also called 3C4 Fab; well C4
B3: Fab of well D1 (Omniclonal AL0003Z1 plate) (Fab, V domains shown)
VH: B1 VH with D1E, N44D, S58Y, N84S, S88T, P111T
VL: B1 VL with Q3K, L21I, N31T, K45E, H49Y, A56D, L83M, A93E
B4: 3C4 mouse-human chimeric IgG1 anti-KAAG1 monoclonal antibody (antibody, V domains shown)
VH: B1 VH with D1E, S53N, F54Y, N55D, D57H, S58N, N59D, R72Q, S88T, P111T
VL: DIVMSQSPSSMYASLGERVTITCKASQDIHNFLNWFQQKPGKSPKTLIFRANRLVDGVPSRFSGSGSGQDYSLTISSLEFEDLGIYSCLQYDEIPLTFGAGTKLELRA
notes: Mouse variable regions on human kappa and human IgG1 constant regions, expressed in 293E cells; also called chimeric 3C4
B5: G12 (Fab, V domains shown)
VH: EVQLQQSVAELVRPGASVTVSCKASGYIFTDYEIHWVKQTPAHGLEWIGVIDPETGNTAFNQKFKGKATLTADISSSTAYMELSSLTSEDSAVYYCMGYSDYWGQGTTLTVSS
VL: DIVMTQSPKFMSTSVGDRVSITCKASQDVGTAVAWYQQKPGQSPELLIYWTSTRHTGVPDRFSGSGSGTDFTLTISSVQAEDLADYFCQQHYSIPLTFGAGTKLELR
notes: also called Fab of well G12
B6: Fab of well E10 (Omniclonal AL0003Z1 plate) (Fab, V domains shown)
VH: EVQLQQSGPELVKPGASVKISCKASGDTFTDYYMNWVKQSHGKSLEWIGDINPNYGGITYNQKFKGKATLTVDTSSSTAYMELRGLTSEDSAVYYCQAYYRNSDYWGQGTTLTVSS
VL: DIVMTQAAPSVPVTPGESVSISCRSSKSLLHSNGNTYLYWFLQRPGQSPQLLIYRMSNLASGVPDRFSGSGSGTAFTLRISRVEAEDVGVYYCMQHLEYPYTFGGGTKLEIK
B7: C3 (Fab, V domains shown)
VH: EVQLQQSVAEVVRPGASVTLSCKASGYTFTDYEIHWVKQTPVHGLEWIGVIDPETGVTAYNQRFRDKATLTTDKSSSTAYMELSSLTSEDSAVYFCMGYSDYWGQGTTLTVSS
VL: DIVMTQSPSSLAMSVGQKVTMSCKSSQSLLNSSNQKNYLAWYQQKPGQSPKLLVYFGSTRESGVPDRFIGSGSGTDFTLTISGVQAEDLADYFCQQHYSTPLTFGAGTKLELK
notes: also called Fab of well C3
B8: 3D3 mouse-human chimeric IgG1 anti-KAAG1 monoclonal antibody (antibody, V domains shown)
VH: B5 VH with V20L, A42V
VL: DIVMTQSPSSLAVSIGQKVTMNCKSSQSLLNSNFQKNFLAWYQQKPGQSPKLLIYFASTRESSIPDRFIGSGSGTDFTLTISSVQAEDLADYFCQQHYSTPLTFGAGTKLELKA
notes: Mouse variable regions on human kappa and human IgG1 constant regions, expressed in 293E cells; also called chimeric 3D3; 3D3 chimeric IgG1
B9: 3D3 hybrid antibody: humanized light chain expressed with the chimeric heavy chain (antibody, V domains shown)
VH: B5 VH with V20L, A42V
VL: DIVMTQSPDSLAVSLGERATINCKSSQSLLNSNFQKNFLAWYQQKPGQPPKLLIYFASTRESSVPDRFSGSGSGTDFTLTISSLQAEDVAVYYCQQHYSTPLTFGQGTKLEIKR
notes: also called HC
B10: 3D3 mouse anti-KAAG1 Fab (Fab, V domains shown)
VH: B5 VH with V20L, A42V
VL: DIVMTQSPSSLAVSIGQKVTMNCKSSQSLLNSNFQKNFLAWYQQKPGQSPKLLIYFASTRESSIPDRFIGSGSGTDFTLTISSVQAEDLADYFCQQHYSTPLTFGAGTKLELK
notes: Recombinant mouse Fab prepared from E. coli, from Omniclonal AL0003Z1; also called 3D3 Fab
B11: 3G10 mouse anti-KAAG1 Fab (Fab, V domains shown)
VH: EIQLQQSGPELVKPGASVKISCKASGYTFTDNYMNWVKQSHGKSLEWIGDINPYYGTTTYNQKFKGKATLTVDKSSRTAYMELRGLTSEDSAVYYCARDDWFDYWGQGTLVTVSA
VL: DVLMTQTPRSLSVSLGDQASISCRSSQSLLHSNGNTYLEWYLQKPGQPPKVLIYKVSNRFSGVPDRFSGSGSGTDFTLKISGVEAEDLGVYYCFQGSHVPLTFGAGTKLELK
notes: Recombinant mouse Fab prepared from E. coli; also called 3G10 Fab; well G10
B12: A9 (Fab, V domains shown)
VH: QVQVQQPGAELVRPGASVTLSCKASGYIFTDYEVHWVRQRPVHGLEWIGVIDPETGDTAYNQKFKGKATLTADKSSSTAYMELSSLTAEDSAVYYCIGYADYWGQGTTLTVSS
VL: DIVMTQSPSSLAMSLGQKVTMSCKSSQSLLNSNNQLNYLAWYQQKPGQSPKLLVYFASTRKSGVPDRFIGSGSGTDFTLTITSVQAEDLADYFCQQHFNTPLTFGAGTKLELK
notes: also called Fab of well A9
B13: G8 (Fab, V domains shown)
VH: QVQLKQSGAELVRPGASVTLSCKASGYTFTDYEVHWVKQTPVHGLEWIGVIDPATGDTAYNQKFKGKATLTADKSSSTAYMEVSSLTSEDSAVYYCMGYSDYWGQGTTLTVSS
VL: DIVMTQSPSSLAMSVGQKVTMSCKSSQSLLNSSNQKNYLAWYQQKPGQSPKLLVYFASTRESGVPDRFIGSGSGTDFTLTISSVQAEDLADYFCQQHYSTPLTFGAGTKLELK
notes: also called Fab of well G8

How the values were obtained:
biotinylated Fc domain = molecular target: T1, biotinylated Fc domain (UniProt P01857-1 104-330 = IgG part, limits assumed, biotinylated); assay: ELISA, biotinylated Fc domain on streptavidin plate, Fab detected with HRP anti-kappa
T1 construct: domain: Fc domain; Control antigen of the Fab ELISA; also called Fc domain (control)
Experimental: (§1) The 96-well master plate of monoclonal preparations contained different concentrations of purified anti-KAAG1 Fabs in each well. A second stock master plate was prepared by diluting the Fabs to a final concentration of 10 μg/ml from which all subsequent dilutions were performed for ELISA measurements. To carry out the binding of Fc-KAAG1 to the monoclonal preparations, the Fc-KAAG1 was biotinylated with NHS-biotin (Pierce, Rockford, Ill.) and 10 ng/well was coated in a streptavidin 96-well plate. One nanogram of each Fab monoclonal preparation was added to each well and incubated at room temperature for 30 minutes. Bound antibody was detected with HRP-conjugated mouse anti-kappa light chain antibody in the presence of TMB liquid substrate (Sigma-Aldrich Canada Ltd., Oakville, ON) and readings were conducted at 450 nm in microtiter plate reader.

[1] = molecular target: T2, recombinant Fc-KAAG1 fusion protein (full-length KAAG1) (human, UniProt Q9UBP8 1-84, biotinylated with NHS-biotin (sites not given)); assay: ELISA
T2 construct: also called recombinant human KAAG1; not shown: human Fc domain encoded by expression plasmid pYD5; vector-encoded residues between the Fc and the BamHI cloning site of pYD5
T2 sequence: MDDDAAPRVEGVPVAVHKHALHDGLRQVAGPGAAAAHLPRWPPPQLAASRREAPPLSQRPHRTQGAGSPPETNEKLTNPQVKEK
Experimental: as §1

[2] = molecular target: T2, recombinant Fc-KAAG1 fusion protein …; assay: ELISA; remark: listed apart in the source
[3] = molecular target: T3, Fc-fused truncated mutant of KAAG1 spanning amino acids 1-35 (human); assay: ELISA
T3 construct: also called truncated mutant of KAAG1 1-35; first 35 amino acids of KAAG1; not shown: human Fc domain encoded by expression plasmid pYD5; vector-encoded residues between the Fc and the BamHI cloning site of pYD5
T3 chain: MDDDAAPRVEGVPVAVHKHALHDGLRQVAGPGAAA

[4] = molecular target: T4, KAAG1 (Kidney associated antigen 1), endogenous, on cancer cells and in tumour tissue (human, UniProt Q9UBP8 1-84); assay: cell-based ELISA on fixed, non-permeabilised OV-90 cells
T4 construct: also called KAAG1 antigen
T4 sequence: T2 sequence
Experimental: (§2) KAAG1 is expressed on the surface of ovarian cancer cells. […] Following extensive washing of the cells, bound antibody was detected with HRP-conjugated anti-human IgG as a secondary antibody in a modified cell-based ELISA (see FIG. 16A). […] Additionally, the 3D3 antibody produced the strongest signal implying that the epitope targeted by this antibody was the most accessible in this assay. […] A second approach used was flow cytometry. In this case, a mouse 3D3 anti-KAAG1 antibody was incubated with SKOV-3 ovarian cancer cells at saturating conditions and following extensive washing, the bound 3D3 anti-KAAG1 antibody was detected with anti-mouse IgG conjugated to FITC in a flow cytometer.

[5] = molecular target: T5, monomeric recombinant KAAG1 (Homo sapiens (Human), UniProt Q9UBP8 1-84, limits assumed); assay: SPR (Biacore): antibody captured on immobilised anti-human Fc, monomeric recombinant KAAG1 injected, global 1:1 fit; average KD; chimeric 3D3 tabulated as 'm3D3' in FIG. 18B
T5 construct: Analyte of the Biacore experiment
T5 sequence: T2 sequence
Experimental: (§3) More precise measurements were conducted using Surface Plasmon Resonance (SPR) in a Biacore instrument. Kinetic analysis was used to compare the affinity of the chimeric 3D3 with the h3D3 as well as with hybrid antibodies encompassing different permutations of the light and heavy chains (see FIG. 18B). Briefly, anti-human Fc was immobilized on the Biacore sensor chip and chimeric or h3D3 was captured on the chip. Different concentrations of monomeric recombinant KAAG1 were injected and the data were globally fitted to a simple 1:1 model to determine the kinetic parameters of the interaction.

[6] = molecular target: T5, monomeric recombinant KAAG1; assay: SPR (Biacore), antibody captured by anti-human Fc, 1:1 fit
Experimental: as §3

[7] = molecular target: T4, KAAG1 (Kidney associated antigen 1), …; assay: cell-based ELISA on fixed, non-permeabilised TOV-21G cells
Experimental: as §2

[8] = molecular target: T2, recombinant Fc-KAAG1 fusion protein …; assay: ELISA on recombinant Fc-KAAG1
Experimental: as §1
Since an antibody harboring effector functions was required, the h3D3 was assembled as a human IgG₁. ELISA-based assays were performed to directly compare the ability of the h3D3 […]. The methods used to perform these tests were as described in Example 3 using recombinant Fc-KAAG1.

[9] = molecular target: T5, monomeric recombinant KAAG1; assay: SPR (Biacore): antibody captured on immobilised anti-human Fc, monomeric recombinant KAAG1 injected, global 1:1 fit; average KD; chimeric light + chimeric heavy chain, 'CC' in FIG. 18B
Experimental: as §3

[10] = molecular target: T5, monomeric recombinant KAAG1; assay: SPR (Biacore): antibody captured on immobilised anti-human Fc, monomeric recombinant KAAG1 injected, global 1:1 fit; average KD; humanized light + chimeric heavy chain, 'HC'
Experimental: as §3

[11] = molecular target: T2, recombinant Fc-KAAG1 fusion protein …; assay: ELISA on Fc-KAAG1
Experimental: as §1
Expression of human IgG1s in 293E cells—The expression vectors prepared above that encoded the light and heavy chain immunoglobulins were expressed in 293E cells using the transient transfection system (Durocher et al., 2002). The methods used for co-transfecting the light and heavy chain expression vectors were described in Example 3. […] The ability of the chimeric anti-KAAG1 monoclonal antibodies to bind to recombinant Fc-KAAG1 was measured in the ELISA and compared with the original mouse Fabs. The method was described in Example 3. […]

Binder	binding result (biotinylated Fc domain)	OD450 [1]	OD450 [2]	OD450 [3]	other results
B1	no binding	0.32	0.32	1.97	
B2	no binding	0.25	0.25	1.93	
B3	no binding	0.15	0.15	1.21	
B4					EC50 (read off the curve) [4]: ~0.6 µg/mL
B5		1.38	1.38		
B6		0.02	0.02		
B7		1.04	1.04		
B8					Kd [5]: 0.235 nM; Ka [6]: 4.5e+09 M⁻¹ and 2.71e+09 M⁻¹; Kd [6]: 0.368 nM; koff [6]: 0.00065 s⁻¹ and 0.00073 s⁻¹; kon [6]: 2.91e+06 M⁻¹ s⁻¹ and 1.98e+06 M⁻¹ s⁻¹; EC50 (read off the curve) [7]: ~0.6 µg/mL; EC50 (read off the curve) [4]: ~0.9 µg/mL; EC50 (read off the curve) [8]: ~0.4 µg/mL; Kd [9]: 0.271 nM
B9					Kd [10]: 0.309 nM; Ka [6]: 3.24e+09 M⁻¹; koff [6]: 0.00073 s⁻¹; kon [6]: 2.36e+06 M⁻¹ s⁻¹
B10	no binding	1.21	1.21		EC50 (read off the curve) [11]: ~0.5 µg/mL
B11	no binding	2.78	2.78		
B12		1.53	1.53	0.1	
B13		1.72	1.72		
